Article PMC10054925 (bioRxiv, 2023)

Target: the molecule itself
Assay: SEC

B1: Vibrio cholerae HlyU (VcHlyU), transcriptional activator of hlyA (natural protein)
chain: MPYLKGAPMNLQEMEKNSAKAVVLLKAMANERRLQILCMLLDNELSVGELSSRLELSQSALSQHLAWLRRDGLVNTRKEAQTVFYTLSSTEVKAMIELLHRLYCQANQ
- stoichiometry N: 2
